The target of assay [1] is mCherry-RZZ (ROD-Zwilch-ZW10 complex, wild type) (UniProt P50748 1-2209; Q9H900 1-591; O43264 1-779). The experiment in a line: SEC. In general terms: Size exclusion chromatography separates by hydrodynamic size, large species first.
In assay [2] the target is R^EEZZ (RZZ with phosphomimetic ROD T13E-S15E) (UniProt P50748 1-2209; Q9H900 1-591; O43264 1-779, T13E | S15E). The experiment in a line: pull-down.
Chain of R^EEZZ (RZZ with phosphomimetic ROD T13E-S15E) (P50748 whole entry T13E/S15E, chain 1 of 3): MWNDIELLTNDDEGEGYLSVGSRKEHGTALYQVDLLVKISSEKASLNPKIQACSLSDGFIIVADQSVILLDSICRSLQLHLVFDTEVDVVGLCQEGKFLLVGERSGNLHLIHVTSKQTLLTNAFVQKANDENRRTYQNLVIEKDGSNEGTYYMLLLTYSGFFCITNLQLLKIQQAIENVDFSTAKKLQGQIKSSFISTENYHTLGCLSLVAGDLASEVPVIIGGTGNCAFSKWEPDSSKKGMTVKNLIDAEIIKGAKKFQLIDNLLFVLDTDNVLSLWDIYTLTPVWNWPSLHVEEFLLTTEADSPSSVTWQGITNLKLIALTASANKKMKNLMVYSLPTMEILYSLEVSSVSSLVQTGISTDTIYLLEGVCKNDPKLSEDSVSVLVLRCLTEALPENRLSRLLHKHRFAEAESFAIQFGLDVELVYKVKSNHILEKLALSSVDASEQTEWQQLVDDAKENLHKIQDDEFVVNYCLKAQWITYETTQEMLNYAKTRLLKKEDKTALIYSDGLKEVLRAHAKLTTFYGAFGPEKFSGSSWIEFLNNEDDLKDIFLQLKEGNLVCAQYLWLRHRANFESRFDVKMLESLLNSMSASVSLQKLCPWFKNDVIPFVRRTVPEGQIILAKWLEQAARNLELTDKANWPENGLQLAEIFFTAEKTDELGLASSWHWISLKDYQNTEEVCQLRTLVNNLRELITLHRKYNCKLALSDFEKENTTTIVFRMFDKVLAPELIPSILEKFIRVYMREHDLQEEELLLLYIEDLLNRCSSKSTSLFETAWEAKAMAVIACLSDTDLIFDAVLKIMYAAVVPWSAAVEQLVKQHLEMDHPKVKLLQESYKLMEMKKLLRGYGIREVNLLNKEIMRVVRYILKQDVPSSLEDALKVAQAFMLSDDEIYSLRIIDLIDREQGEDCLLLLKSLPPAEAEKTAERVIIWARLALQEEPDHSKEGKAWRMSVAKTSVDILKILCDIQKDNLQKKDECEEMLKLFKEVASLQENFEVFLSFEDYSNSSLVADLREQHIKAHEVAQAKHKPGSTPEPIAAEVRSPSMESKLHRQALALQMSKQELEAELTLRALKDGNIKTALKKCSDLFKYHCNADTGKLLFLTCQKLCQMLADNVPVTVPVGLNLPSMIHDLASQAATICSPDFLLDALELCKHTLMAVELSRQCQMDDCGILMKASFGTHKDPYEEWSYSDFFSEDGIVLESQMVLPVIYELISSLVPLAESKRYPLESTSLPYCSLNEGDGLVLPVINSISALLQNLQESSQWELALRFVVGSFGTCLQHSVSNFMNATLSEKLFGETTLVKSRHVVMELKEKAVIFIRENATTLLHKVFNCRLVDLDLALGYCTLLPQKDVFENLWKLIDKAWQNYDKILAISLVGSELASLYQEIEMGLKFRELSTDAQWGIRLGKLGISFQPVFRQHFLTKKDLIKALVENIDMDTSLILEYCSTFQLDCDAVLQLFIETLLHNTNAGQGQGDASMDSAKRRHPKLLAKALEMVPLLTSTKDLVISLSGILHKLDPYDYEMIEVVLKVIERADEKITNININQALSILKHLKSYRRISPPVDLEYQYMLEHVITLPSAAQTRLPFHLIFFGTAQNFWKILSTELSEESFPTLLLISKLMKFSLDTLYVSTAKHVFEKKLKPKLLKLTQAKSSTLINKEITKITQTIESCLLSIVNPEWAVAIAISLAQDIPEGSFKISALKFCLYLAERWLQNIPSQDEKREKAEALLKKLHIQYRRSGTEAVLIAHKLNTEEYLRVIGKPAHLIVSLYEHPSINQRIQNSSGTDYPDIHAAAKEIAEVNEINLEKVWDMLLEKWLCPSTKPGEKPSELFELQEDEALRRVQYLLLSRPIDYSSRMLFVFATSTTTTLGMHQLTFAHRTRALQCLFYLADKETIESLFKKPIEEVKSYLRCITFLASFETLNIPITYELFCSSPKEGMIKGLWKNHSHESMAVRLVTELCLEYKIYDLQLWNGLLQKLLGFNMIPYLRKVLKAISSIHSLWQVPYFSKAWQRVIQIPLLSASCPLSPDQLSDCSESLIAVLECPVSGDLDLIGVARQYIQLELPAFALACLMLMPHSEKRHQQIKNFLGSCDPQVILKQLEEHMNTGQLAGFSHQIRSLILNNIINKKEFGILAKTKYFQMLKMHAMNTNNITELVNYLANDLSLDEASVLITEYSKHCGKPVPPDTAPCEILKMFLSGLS
Chain of R^EEZZ (RZZ with phosphomimetic ROD T13E-S15E) (Q9H900 whole entry, chain 2 of 3): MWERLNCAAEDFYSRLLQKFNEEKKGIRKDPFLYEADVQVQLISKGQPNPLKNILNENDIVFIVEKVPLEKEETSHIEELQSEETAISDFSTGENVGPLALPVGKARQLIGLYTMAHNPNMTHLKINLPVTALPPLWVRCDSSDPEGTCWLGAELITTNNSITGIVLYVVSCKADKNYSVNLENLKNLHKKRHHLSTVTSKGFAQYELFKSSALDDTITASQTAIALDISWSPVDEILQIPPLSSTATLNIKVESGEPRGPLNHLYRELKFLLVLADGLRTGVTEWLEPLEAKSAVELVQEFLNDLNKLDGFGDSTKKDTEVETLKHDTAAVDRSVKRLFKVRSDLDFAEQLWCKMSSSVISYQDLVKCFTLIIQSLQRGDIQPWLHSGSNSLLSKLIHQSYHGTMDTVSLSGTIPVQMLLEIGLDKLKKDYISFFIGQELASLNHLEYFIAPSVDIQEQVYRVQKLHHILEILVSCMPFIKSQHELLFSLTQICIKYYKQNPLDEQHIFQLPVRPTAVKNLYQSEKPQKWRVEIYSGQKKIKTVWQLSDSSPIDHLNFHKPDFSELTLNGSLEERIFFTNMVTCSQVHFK
Chain of R^EEZZ (RZZ with phosphomimetic ROD T13E-S15E) (O43264 whole entry, chain 3 of 3): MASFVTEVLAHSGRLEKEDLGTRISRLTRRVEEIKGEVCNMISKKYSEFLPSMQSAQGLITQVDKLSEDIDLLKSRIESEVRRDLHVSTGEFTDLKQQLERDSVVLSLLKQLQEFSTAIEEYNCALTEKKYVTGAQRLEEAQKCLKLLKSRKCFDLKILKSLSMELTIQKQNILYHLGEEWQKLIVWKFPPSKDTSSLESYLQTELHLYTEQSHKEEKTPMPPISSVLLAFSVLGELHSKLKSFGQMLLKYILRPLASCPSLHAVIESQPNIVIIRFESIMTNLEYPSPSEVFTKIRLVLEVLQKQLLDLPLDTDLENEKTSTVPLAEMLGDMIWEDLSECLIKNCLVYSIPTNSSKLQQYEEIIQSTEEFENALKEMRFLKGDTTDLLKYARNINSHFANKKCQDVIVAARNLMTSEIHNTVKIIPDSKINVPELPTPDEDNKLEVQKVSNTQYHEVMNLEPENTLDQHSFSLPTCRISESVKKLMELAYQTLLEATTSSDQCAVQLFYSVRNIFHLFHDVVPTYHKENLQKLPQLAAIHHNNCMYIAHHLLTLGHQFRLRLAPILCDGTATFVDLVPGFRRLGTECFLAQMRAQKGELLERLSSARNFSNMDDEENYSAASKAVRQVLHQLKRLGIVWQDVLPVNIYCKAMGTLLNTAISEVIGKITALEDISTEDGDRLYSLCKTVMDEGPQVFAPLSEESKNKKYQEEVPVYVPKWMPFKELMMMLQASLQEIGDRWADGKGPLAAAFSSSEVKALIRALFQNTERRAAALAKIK

Chain of mCherry-RZZ (ROD-Zwilch-ZW10 complex, wild type) (P50748 whole entry, chain 1 of 3): as the sequence (P50748 whole entry T13E/S15E, chain 1 of 3) above, with E13T, E15S counted along it
Chain of mCherry-RZZ (ROD-Zwilch-ZW10 complex, wild type) (Q9H900 whole entry, chain 2 of 3): as the sequence (Q9H900 whole entry, chain 2 of 3) above
Chain of mCherry-RZZ (ROD-Zwilch-ZW10 complex, wild type) (O43264 whole entry, chain 3 of 3): as the sequence (O43264 whole entry, chain 3 of 3) above

B1: GST-BUB1^467-521 (domain or fragment, UniProt O43683 467-521, looked up)
chain: ALGFIMNMFQAPTLPDISDDKDEWQSLDQNEDAFEAQFQKNVRSSGAWGVNKIIS
Regarding B1, the binding result in assay [1] and in assay [2] was “binds” in each case.

Values taken from doi:10.1101/2025.06.17.660062 (bioRxiv, 2025).
